Experimental data as given in patent publication US20050153894A1, “p21 peptides” (Cyclacel Limited, priority 1999, published 2005).
Square brackets hold non-standard residues; d marks the D form. 1Nal = N[C@@H](Cc1cccc2ccccc12)C(=O)O; 2Nal = N[C@@H](Cc1ccc2ccccc2c1)C(=O)O; hPhe = N[C@@H](CCc1ccccc1)C(=O)O; Tic = O=C(O)[C@@H]1Cc2ccccc2CN1; Cha = N[C@@H](CC1CCCCC1)C(=O)O

Columns and labels:
CDK2/cyclin A = CDK2/cyclin A (Homo sapiens, UniProt P20248); assay: CDK2/cyclin A kinase assay, substrate pRb(773-928); format: biochemical; conditions: relative to H-His-Ala-Lys-Arg-Arg-Leu-Ile-Phe-NH2 (=1), pRb substrate, [ATP] = 100 μM
Text: Reactions were stopped on ice, followed by filtration through p81 filterplates (Whatman Polyfiltronics, Kent, UK).

Cyclin A = Cyclin A (Homo sapiens, UniProt P20248); assay: Cyclin A binding assay, immobilised biotinyl-Ahx-[…]NH2; conditions: relative to H-His-Ala-Lys-Arg-Arg-Leu-Ile-Phe-NH2 (=1)
Chain of Cyclin A (P20248 whole entry): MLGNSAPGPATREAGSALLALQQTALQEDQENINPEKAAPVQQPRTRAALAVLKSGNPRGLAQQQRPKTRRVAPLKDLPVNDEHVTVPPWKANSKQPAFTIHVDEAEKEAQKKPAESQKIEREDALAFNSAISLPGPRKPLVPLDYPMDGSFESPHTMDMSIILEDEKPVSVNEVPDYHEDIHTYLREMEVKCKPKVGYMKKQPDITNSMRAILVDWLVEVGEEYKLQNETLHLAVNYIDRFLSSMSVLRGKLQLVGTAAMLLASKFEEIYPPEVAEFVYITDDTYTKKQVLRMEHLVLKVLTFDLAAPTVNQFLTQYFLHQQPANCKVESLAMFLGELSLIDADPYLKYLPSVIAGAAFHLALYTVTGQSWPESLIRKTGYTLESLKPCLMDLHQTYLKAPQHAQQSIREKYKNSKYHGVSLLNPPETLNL
Procedure: This was added to each well (100 μL). The plate was incubated for 1 h at room temperature with constant shaking. The plate was washed once quickly with TBS/BSA buffer (200 μL), followed by three more washes with TBS/BSA buffer (200 μL) for 5 min each. Serial dilutions of test peptides were prepared in a new plate (50 μL in each well). Cyclin A was diluted to 5 μg/50 μL with TBS/BSA buffer and this was then added to each well (50 μL). The solutions were mixed thoroughly with a pipette (5-6 times), before being incubated for 30 min at room temperature. This reaction mixture was then transferred to the biotinylated peptide: streptavidin-coated plate and incubated for 1 h at room temperature with constant shaking. The plate was washed once quickly with TBS/BSA buffer (200 μL), followed by three more washes with TBS/BSA buffer (200 μL) for 5 min each. The cyclin A antibody (Santa Cruz polyclonal) solution was diluted 1:200 with TBS/BSA buffer and this was then added to each well of the plate (100 μL. The plate was incubated for 1 h at room temperature with constant shaking. The plate was washed once quickly with TBS/BSA buffer (200 μl), followed by three more washes with TBS/BSA buffer (200 μL) for 5 min each. The anti-rabbit secondary antibody (goat anti-rabbit IgG peroxidase conjugate) was diluted 1:10,000 with TBS/BSA and this was then added to each well of the plate (100 μL). The plate was incubated for 1 h at room temperature with constant shaking. The plate was washed once quickly with TBS/BSA buffer (200 μL), followed by three more washes with TBS/BSA buffer (200 μL) for 5 min each. To each well was added the TMB-ELISA reagent (Pierce 1-Step™ Turbo TMB-ELISA; 100 μL) and the plate incubated for 1 min with constant shaking. The reaction was then quenched by the addition of 2 M aqueous H2SO4 (100 μL, each well). The UV absorbance of the each solution was measured spectrophotometrically at 450 nm. IC50 values were calculated from dose-response curves.

Row | Relative activity Kinase Inhibition (CDK2/cyclin A; Phe159 substitutions) | Relative activity Cyclin A Binding (Cyclin A; Phe159 substitutions) | Substance | further results
1 |  |  | H-His-Ala-Lys-Arg-Arg-1Nap-Ile Phe-NH2 (H-HAKRR[1Nal]IF-NH2; SMILES CC[C@H](C)[C@H](NC(=O)[C@H](Cc1cccc2ccccc12)NC(=O)[C@H](CCCNC(=N)N)NC(=O)[C@H](CCCNC(=N)N)NC(=O)[C@H](CCCCN)NC(=O)[C@H](C)NC(=O)[C@@H](N)Cc1c[nH]cn1)C(=O)N[C@@H](Cc1ccccc1)C(N)=O) | Relative activity Kinase Inhibition (CDK2/cyclin A; Leu157 substitutions): <0.1; Relative activity Cyclin A Binding (Cyclin A; Leu157 substitutions): <0.1
2 |  |  | H-His-Ala-Lys-Arg-Arg-Cha-Ile Phe-NH2 (H-HAKRR[Cha]IF-NH2; SMILES CC[C@H](C)[C@H](NC(=O)[C@H](CC1CCCCC1)NC(=O)[C@H](CCCNC(=N)N)NC(=O)[C@H](CCCNC(=N)N)NC(=O)[C@H](CCCCN)NC(=O)[C@H](C)NC(=O)[C@@H](N)Cc1c[nH]cn1)C(=O)N[C@@H](Cc1ccccc1)C(N)=O) | Relative activity Kinase Inhibition (CDK2/cyclin A; Leu157 substitutions): <0.1; Relative activity Cyclin A Binding (Cyclin A; Leu157 substitutions): <0.1
3 |  |  | H-His-Ala-Lys-Arg-Arg-Leu-1Nap-Phe-NH2 (H-HAKRRL[1Nal]F-NH2; SMILES CC(C)C[C@H](NC(=O)[C@H](CCCNC(=N)N)NC(=O)[C@H](CCCNC(=N)N)NC(=O)[C@H](CCCCN)NC(=O)[C@H](C)NC(=O)[C@@H](N)Cc1c[nH]cn1)C(=O)N[C@@H](Cc1cccc2ccccc12)C(=O)N[C@@H](Cc1ccccc1)C(N)=O) | Relative activity Kinase Inhibition (CDK2/cyclin A; Ile158 substitutions): 0.5; Relative activity Cyclin A Binding (Cyclin A; Ile158 substitutions): 0.5
4 |  |  | H-His-Ala-Lys-Arg-Arg-Leu-Cha-Phe-NH2 (H-HAKRRL[Cha]F-NH2; SMILES CC(C)C[C@H](NC(=O)[C@H](CCCNC(=N)N)NC(=O)[C@H](CCCNC(=N)N)NC(=O)[C@H](CCCCN)NC(=O)[C@H](C)NC(=O)[C@@H](N)Cc1c[nH]cn1)C(=O)N[C@@H](CC1CCCCC1)C(=O)N[C@@H](Cc1ccccc1)C(N)=O) | Relative activity Kinase Inhibition (CDK2/cyclin A; Ile158 substitutions): 0.3; Relative activity Cyclin A Binding (Cyclin A; Ile158 substitutions): 0.5
5 | 0.2 | <0.1 | H-His-Ala-Lys-Arg-Arg-Leu-Ile-1Nap-NH2 (H-HAKRRLI[1Nal]-NH2; SMILES CC[C@H](C)[C@H](NC(=O)[C@H](CC(C)C)NC(=O)[C@H](CCCNC(=N)N)NC(=O)[C@H](CCCNC(=N)N)NC(=O)[C@H](CCCCN)NC(=O)[C@H](C)NC(=O)[C@@H](N)Cc1c[nH]cn1)C(=O)N[C@@H](Cc1cccc2ccccc12)C(N)=O) | 
6 | 1.2 | 0.7 | H-His-Ala-Lys-Arg-Arg-Leu-Ile-2Nap-NH2 (H-HAKRRLI[2Nal]-NH2; SMILES CC[C@H](C)[C@H](NC(=O)[C@H](CC(C)C)NC(=O)[C@H](CCCNC(=N)N)NC(=O)[C@H](CCCNC(=N)N)NC(=O)[C@H](CCCCN)NC(=O)[C@H](C)NC(=O)[C@@H](N)Cc1c[nH]cn1)C(=O)N[C@@H](Cc1ccc2ccccc2c1)C(N)=O) | 
7 | <0.1 | <0.1 | H-His-Ala-Lys-Arg-Arg-Leu-Ile-Cha-NH2 (H-HAKRRLI[Cha]-NH2; SMILES CC[C@H](C)[C@H](NC(=O)[C@H](CC(C)C)NC(=O)[C@H](CCCNC(=N)N)NC(=O)[C@H](CCCNC(=N)N)NC(=O)[C@H](CCCCN)NC(=O)[C@H](C)NC(=O)[C@@H](N)Cc1c[nH]cn1)C(=O)N[C@@H](CC1CCCCC1)C(N)=O) | 
8 | <0.1 | <0.1 | H-His-Ala-Lys-Arg-Arg-Leu-Ile-Hof-NH2 (H-HAKRRLI[hPhe]-NH2; SMILES CC[C@H](C)[C@H](NC(=O)[C@H](CC(C)C)NC(=O)[C@H](CCCNC(=N)N)NC(=O)[C@H](CCCNC(=N)N)NC(=O)[C@H](CCCCN)NC(=O)[C@H](C)NC(=O)[C@@H](N)Cc1c[nH]cn1)C(=O)N[C@@H](CCc1ccccc1)C(N)=O) | 
9 | 0.3 | <0.1 | H-His-Ala-Lys-Arg-Arg-Leu-Ile-Tic-NH2 (H-HAKRRLI[Tic]-NH2; SMILES CC[C@H](C)[C@H](NC(=O)[C@H](CC(C)C)NC(=O)[C@H](CCCNC(=N)N)NC(=O)[C@H](CCCNC(=N)N)NC(=O)[C@H](CCCCN)NC(=O)[C@H](C)NC(=O)[C@@H](N)Cc1c[nH]cn1)C(=O)N1Cc2ccccc2C[C@H]1C(N)=O) | 
